Read-outs that look alike come from different tables or passages of the source.
Key:
Assay in all cases: cell-based or functional assay
[1] = molecular target: human voltage-gated sodium channel Nav1.7 (human) (UniProt Q15858)
[2] = molecular target: human voltage-gated sodium channel Nav1.4 (human) (UniProt P35499)
[3] = molecular target: human voltage-gated sodium channel Nav1.5 (human) (UniProt Q14524)
[4] = molecular target: human voltage-gated sodium channel Nav1.7 (human) (UniProt Q15858); remark: listed apart in the source
[5] = molecular target: human voltage-gated sodium channel Nav1.4 (human) (UniProt P35499); remark: listed apart in the source
[6] = molecular target: human voltage-gated sodium channel Nav1.3 (human) (UniProt Q9NY46)
[7] = molecular target: human voltage-gated sodium channel Nav1.5 (human) (UniProt Q14524); remark: listed apart in the source

Sequence of human voltage-gated sodium channel Nav1.5 (human) (Q14524 whole entry): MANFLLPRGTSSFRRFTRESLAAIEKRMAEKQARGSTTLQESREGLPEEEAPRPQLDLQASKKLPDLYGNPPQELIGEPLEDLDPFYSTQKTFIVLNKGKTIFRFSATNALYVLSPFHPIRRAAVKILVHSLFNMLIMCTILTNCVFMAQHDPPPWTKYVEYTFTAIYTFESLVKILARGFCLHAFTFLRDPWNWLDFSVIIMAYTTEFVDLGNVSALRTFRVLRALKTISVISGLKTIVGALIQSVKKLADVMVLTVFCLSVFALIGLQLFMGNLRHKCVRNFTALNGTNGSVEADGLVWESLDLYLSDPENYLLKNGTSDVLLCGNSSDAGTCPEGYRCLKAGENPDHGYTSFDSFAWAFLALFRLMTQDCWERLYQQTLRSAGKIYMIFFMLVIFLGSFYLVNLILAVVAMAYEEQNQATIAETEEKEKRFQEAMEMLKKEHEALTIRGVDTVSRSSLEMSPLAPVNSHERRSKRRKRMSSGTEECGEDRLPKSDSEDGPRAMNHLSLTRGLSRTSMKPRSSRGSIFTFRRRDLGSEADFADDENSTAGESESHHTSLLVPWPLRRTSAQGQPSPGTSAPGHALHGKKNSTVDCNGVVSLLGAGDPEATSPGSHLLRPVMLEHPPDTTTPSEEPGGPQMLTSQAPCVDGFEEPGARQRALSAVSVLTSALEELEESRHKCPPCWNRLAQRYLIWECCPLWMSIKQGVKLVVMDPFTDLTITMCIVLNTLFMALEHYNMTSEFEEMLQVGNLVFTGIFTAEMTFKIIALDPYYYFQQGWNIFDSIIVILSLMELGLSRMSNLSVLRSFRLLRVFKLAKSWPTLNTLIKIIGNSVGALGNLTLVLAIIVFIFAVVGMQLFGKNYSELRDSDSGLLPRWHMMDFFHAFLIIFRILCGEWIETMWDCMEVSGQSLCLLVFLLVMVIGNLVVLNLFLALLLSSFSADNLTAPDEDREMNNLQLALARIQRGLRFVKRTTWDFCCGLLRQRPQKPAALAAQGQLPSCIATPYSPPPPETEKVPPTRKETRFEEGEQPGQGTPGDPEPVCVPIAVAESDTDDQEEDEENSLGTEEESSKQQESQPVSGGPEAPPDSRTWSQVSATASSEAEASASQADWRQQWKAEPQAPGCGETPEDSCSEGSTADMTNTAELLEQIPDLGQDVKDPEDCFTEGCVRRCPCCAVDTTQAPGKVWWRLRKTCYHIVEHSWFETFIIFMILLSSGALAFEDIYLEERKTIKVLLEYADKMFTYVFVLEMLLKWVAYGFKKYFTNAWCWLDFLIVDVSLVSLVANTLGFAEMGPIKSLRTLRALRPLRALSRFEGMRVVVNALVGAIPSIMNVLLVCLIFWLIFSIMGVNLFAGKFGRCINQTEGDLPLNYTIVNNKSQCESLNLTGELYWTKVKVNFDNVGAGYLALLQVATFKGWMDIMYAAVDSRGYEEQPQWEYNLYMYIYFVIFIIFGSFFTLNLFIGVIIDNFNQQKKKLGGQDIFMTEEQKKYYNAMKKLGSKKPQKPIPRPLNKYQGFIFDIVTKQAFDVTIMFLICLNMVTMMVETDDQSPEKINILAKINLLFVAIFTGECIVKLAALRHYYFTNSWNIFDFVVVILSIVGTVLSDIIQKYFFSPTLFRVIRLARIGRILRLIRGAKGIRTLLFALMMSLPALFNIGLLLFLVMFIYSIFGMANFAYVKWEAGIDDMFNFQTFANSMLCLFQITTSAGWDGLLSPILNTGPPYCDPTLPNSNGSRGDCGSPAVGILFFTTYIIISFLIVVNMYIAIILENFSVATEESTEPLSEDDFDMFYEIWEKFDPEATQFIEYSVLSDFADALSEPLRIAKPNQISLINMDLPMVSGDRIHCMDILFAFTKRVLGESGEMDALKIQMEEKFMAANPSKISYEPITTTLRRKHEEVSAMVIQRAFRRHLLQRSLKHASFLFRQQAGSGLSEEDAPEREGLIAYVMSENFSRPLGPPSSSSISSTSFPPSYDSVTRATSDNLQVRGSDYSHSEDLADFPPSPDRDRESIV
Sequence of human voltage-gated sodium channel Nav1.7 (human) (Q15858 whole entry): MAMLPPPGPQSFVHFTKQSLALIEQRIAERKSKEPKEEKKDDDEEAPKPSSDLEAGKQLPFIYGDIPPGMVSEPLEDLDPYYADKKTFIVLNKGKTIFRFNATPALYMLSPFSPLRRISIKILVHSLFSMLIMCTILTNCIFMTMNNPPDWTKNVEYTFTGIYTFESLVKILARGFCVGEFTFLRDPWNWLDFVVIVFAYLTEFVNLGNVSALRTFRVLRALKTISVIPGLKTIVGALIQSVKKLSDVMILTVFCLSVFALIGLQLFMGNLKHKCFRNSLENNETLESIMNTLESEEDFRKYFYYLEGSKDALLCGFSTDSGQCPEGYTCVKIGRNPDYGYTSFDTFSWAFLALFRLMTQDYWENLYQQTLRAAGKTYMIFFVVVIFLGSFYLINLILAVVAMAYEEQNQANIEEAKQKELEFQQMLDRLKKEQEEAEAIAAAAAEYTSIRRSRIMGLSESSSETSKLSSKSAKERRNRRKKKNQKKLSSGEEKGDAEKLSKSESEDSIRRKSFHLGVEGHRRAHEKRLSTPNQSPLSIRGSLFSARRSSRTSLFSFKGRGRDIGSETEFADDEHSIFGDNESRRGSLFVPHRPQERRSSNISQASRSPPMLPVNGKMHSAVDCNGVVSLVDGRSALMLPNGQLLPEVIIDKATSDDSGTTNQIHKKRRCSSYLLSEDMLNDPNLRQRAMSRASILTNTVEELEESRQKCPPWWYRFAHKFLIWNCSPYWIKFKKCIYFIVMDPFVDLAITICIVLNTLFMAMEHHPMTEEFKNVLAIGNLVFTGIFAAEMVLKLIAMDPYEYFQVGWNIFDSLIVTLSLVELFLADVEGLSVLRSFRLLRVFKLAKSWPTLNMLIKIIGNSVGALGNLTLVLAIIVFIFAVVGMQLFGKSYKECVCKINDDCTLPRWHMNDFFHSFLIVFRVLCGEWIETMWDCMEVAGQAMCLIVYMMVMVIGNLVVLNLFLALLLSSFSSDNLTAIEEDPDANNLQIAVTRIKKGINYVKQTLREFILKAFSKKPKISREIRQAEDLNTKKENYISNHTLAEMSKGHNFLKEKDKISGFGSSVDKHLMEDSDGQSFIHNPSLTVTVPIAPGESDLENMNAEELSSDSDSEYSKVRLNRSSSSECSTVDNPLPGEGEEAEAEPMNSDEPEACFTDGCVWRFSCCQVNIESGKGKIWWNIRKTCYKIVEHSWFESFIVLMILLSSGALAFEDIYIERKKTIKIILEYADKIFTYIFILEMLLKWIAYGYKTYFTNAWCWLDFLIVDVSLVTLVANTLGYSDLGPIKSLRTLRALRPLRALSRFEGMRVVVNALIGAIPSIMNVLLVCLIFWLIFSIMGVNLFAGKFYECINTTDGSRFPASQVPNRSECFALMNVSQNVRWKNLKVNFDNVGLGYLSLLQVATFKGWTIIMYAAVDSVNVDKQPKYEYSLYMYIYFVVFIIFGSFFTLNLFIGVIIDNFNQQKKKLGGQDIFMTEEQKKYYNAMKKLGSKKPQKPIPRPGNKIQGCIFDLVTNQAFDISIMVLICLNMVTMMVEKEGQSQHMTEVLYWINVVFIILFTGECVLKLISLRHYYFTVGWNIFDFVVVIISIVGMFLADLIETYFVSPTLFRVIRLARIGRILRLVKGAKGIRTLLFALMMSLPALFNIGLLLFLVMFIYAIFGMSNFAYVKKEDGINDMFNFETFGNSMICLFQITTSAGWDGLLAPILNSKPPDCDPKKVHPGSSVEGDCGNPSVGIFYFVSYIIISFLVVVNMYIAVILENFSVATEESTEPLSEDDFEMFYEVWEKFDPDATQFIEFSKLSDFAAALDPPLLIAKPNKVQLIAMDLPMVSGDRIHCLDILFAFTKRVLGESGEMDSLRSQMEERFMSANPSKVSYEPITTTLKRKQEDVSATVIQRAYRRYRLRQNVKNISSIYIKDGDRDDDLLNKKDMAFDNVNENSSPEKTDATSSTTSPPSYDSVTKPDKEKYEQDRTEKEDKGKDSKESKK

| Substance | PX hNav1.7 Tonic IC50 [1] | PX hNav1.4 Tonic IC50 [2] | PX hNav1.5 Tonic IC50 [3] | further results |
| --- | --- | --- | --- | --- |
| [Nle6; Pra11; Glu20; Tyr28]JzTx-V(1-29) (peptide) | 1.28 nM | 825 nM | 2460 nM | – |
| [Nle6; Pra11; Glu20]JzTx-V(1-29) (peptide) | 18.4 nM | 4220 nM | 3550 nM | – |
| [Nle6; Pra14; Glu20]JzTx-V(1-29) (peptide) | 7.16 nM | 1660 nM | 4570 nM | – |
| [Nle6; Pra14; Glu20; Tyr28]JzTx-V(1-29) (peptide) | 1.76 nM | 707 nM | 3690 nM | – |
| [Nle6;Pra11;Glu20;Trp29]JzTx-V(1-29) (peptide) | – | – | – | IC50 (IonWorks Quattro) [1]: 26 nM |
| [Cit7;Glu20;Tyr28]JzTx-V(1-29) (peptide) | – | – | – | IC50 (IonWorks Quattro) [4]: 5800 nM; IC50 (IonWorks Quattro) [5]: > 7000 nM; IC50 (IonWorks Quattro) [6]: > 7000 nM; IC50 (IonWorks Quattro) [7]: > 7000 nM |
| [Nle6; AzK11; Glu20; Trp29]JzTx-V(1-29) (peptide) | 435 nM | – | – | – |
| [Nva7;Glu20;Tyr28]JzTx-V(1-29) (peptide) | – | – | – | IC50 (IonWorks Quattro) [4]: 4500 nM; IC50 (IonWorks Quattro) [5]: > 7000 nM; IC50 (IonWorks Quattro) [6]: > 7000 nM; IC50 (IonWorks Quattro) [7]: > 7000 nM |

From patent publication US20150023988A1
